This passage reports Kd, koff and kon results from US20150044213A1 (published 2015).

The target of assay [1] is T1, Recombinant human VEGF165 (human, UniProt P15692-4 27-191).
T1 construct: Immobilized on a CM4 sensor chip by amine coupling (about 500 RU)
In words: SPR (BIAcore T100), VEGF165 on CM4 chip, 1:1 Langmuir model; scFv released from hexPLA formulation, release sample at 3 d. On the procedure: (§1) The affinity of the released ESBA903 monomer toward human VEGF was measured using surface plasmon resonance analysis in comparison to a fresh ESBA903 reference. For evaluation of the binding kinetics, surface plasmon resonance measurements using a BIAcore T100 were performed. Carboxymethylated dextran biosensor chips (CM4, GE HealthCare, Uppsala, Sweden) were activated with N-ethyl-N′-(3-dimethylaminopropyl) carbodiimide hydrochloride and N-hydroxysuccinimide according to the supplier's instructions. Recombinant human VEGF₁₆₅ (PeproTech EC Ltd., London, UK) was immobilized on a CM4 sensor chip using a standard amine-coupling procedure to achieve a response of approximately 500 resonance units. 2-fold serial dilutions (2.5-20 nM) of ESBA903 standard and formulation samples in HBS-EP buffer (10 mM HEPES, 150 mM NaCl, 3 mM EDTA, and 0.05% surfactant P20, pH 7.4) were injected into the flow cells at a flow rate of 30 μL/min for 5 minutes. Dissociation of the anti-VEGF scFv from the VEGF on the CM4 chip was allowed to proceed for 10 minutes. After each injection cycle, surfaces were regenerated with 2 injections of 100 mM NaOH.
(§2) The apparent dissociation (kd) and association (kₐ) rate constants and the apparent dissociation equilibrium constant (KD) were calculated with BIAcore T100 evaluation Software version 2.0.1 using a one-to-one Langmuir binding model (Biacore Inc., Uppsala, Sweden).
For orientation: Surface plasmon resonance follows binding to a sensor surface in real time, without labels.

In assay [2] the target is T1, Recombinant human VEGF165. In words: SPR (BIAcore T100), VEGF165 on CM4 chip, 1:1 Langmuir model; scFv released from hexPLA formulation, release sample at 4 w. On the procedure: as §1, §2
For assay [3], the target named is T1, Recombinant human VEGF165. As to the kind of experiment: SPR (BIAcore T100), VEGF165 on CM4 chip, 1:1 Langmuir model; scFv released from hexPLA formulation, release sample at 14 w. On the procedure:
as §1, §2

For assay [4], the target named is T1, Recombinant human VEGF165. As to the kind of experiment: SPR (BIAcore T100), VEGF165 amine-coupled on CM4 chip, scFv 2.5-20 nM injected, 1:1 Langmuir model; fresh reference, time 0. On the procedure: as §1, §2

Several values for one entry are separate records, joined by “and”; a condition that tells them apart may be missing. Equal entries are not always repeated.

T1 sequence (P15692 other isoform, or with tags, fused parts or gaps limits assumed): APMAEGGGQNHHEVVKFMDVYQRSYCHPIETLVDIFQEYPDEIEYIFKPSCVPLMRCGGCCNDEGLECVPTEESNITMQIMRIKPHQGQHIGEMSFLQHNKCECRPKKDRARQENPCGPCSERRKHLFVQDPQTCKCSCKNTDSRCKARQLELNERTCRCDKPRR

B1: ESBA903 (scFv)
scFv: EIVMTQSPSTLSASVGDRVIITCQASEIIHSWLAWYQQKPGKAPKLLIYLASTLASGVPSRFSGSGSGAEFTLTISSLQPDDFATYYCQNVYLASTNGANFGQGTKLTVLGGGGGSGGGGSGGGGSGGGGSEVQLVESGGGLVQPGGSLRLSCTASGFSLTDYYYMTWVRQAPGKGLEWVGFIDPDDDPYYATWAKGRFTISRDTSKNTVYLQMNSLRAEDTAVYYCAGGDHNSGWGLDIWGQGTLVTVSS
notes: Monomeric scFv (about 25 kDa); same protein in all samples; also called humanized antibody-fragment ESBA903; humanized VEGF-antibody fragment ESBA903
B1: the Kd (usually the free concentration of one partner at which half of the binding sites on the other are occupied at equilibrium, for simple one-to-one binding) in assay [1] is 0.0594 nM and 0.0685 nM and 0.0489 nM; in assay [2] it was 0.0643 nM and 0.0521 nM and 0.0552 nM; in assay [3], 0.0762 nM and 0.066 nM and 0.0826 nM; in assay [4], 0.0256 nM. The koff (in general, the first-order rate constant of dissociation) in assay [1] was 2.77e-05 s⁻¹ and 3e-05 s⁻¹ and 2.59e-05 s⁻¹; in assay [2], 3.56e-05 s⁻¹ and 3.03e-05 s⁻¹ and 2.34e-05 s⁻¹; in assay [3], 3.11e-05 s⁻¹ and 2.78e-05 s⁻¹ and 3.37e-05 s⁻¹; in assay [4], 2.45e-05 s⁻¹. Besides, the kon (as a rule, the rate constant with which the complex forms) is 465000 M⁻¹ s⁻¹ and 439000 M⁻¹ s⁻¹ and 529000 M⁻¹ s⁻¹ in assay [1]; 554000 M⁻¹ s⁻¹ and 582000 M⁻¹ s⁻¹ and 424000 M⁻¹ s⁻¹ in assay [2]; 407000 M⁻¹ s⁻¹ and 421000 M⁻¹ s⁻¹ and 408000 M⁻¹ s⁻¹ in assay [3]; 956000 M⁻¹ s⁻¹ in assay [4].
